Measurements from patent US20230357422A1 (published 2023).
Numbering of substitutions follows the chain as printed.

B1: GITR-his (receptor, human, UniProt Q9Y5U5 26-162, looked up)
chain: QRPTGGPGCGPGRLLLGTGTDARCCRVHTTRCCRDYPGEECCSEWDCMCVQPEFHCGDPCCTTCRHHPCPPGQGVQSQGKFSFGFQCIDCASGTFSGGHEGHCKPWTDCTQFGFLTVFPGNKTHNAVCVPGSPPAEP
notes: 'Human' heads the list '4-1BB-his, GITR-his, OX40-his, CD40-his' and is read as applying to all four; not shown: his tag
B2: OX40-his (receptor, human, UniProt P43489 29-216, looked up)
chain: LHCVGDTYPSNDRCCHECRPGNGMVSRCSRSQNTVCRPCGPGFYNDVVSSKPCKPCTWCNLRSGSERKQLCTATQDTVCRCRAGTQPLDSYKPGVDCAPCPPGHFSPGDNQACKPWTNCTLAGKHTLQPASNSSDAICEDRDPPATQPQETQGPPARPITVQPTEAWPRTSQGPSTRPVEVPGGRAVA
notes: 'Human' heads the list and is read as applying to all four proteins; not shown: his tag
B3: HZ-L-Yr-13&14-16-2 (Fc fusion)
chain: QVQLVESGGGVVQPGRSLRLSCAASGSTFSIVAMGWYRQAPGKGLELVASIITGDGDTNYADSVKGRFTISRDNSKNTMYLQMNSLRAEDTAVYYCYARTGYGSSWLMGHEYDYWGQGTQVTVSSTHTCPPCPAPEAAGGPSVFLFPPKPKDTLMISRTPEVTCVVVDVSHEDPEVKFNWYVDGVEVHNAKTKPREEQYNSTYRVVSVLTVLHQDWLNGKEYKCKVSNKALPAPIEKTISKAKGQPREPQVYTLPPSREEMTKNQVSLTCLVKGFYPSDIAVEWESNGQPENNYKTTPPVLDSDGSFFLYSKLTVDKSRWQQGNVFSCSVMHEALHNHYTQKSLSLSPG
B4: Hu-A-NA-19-1 (Fc fusion)
chain: EVQLVESGGGLVKPGGSLRLSCAASGAIFRINTGAWYRQAPGKQRELVASLTTYGKTTYADFVKGRFTISRDDSKNTLYLQMNSLKTEDTAVYYCHIGPEPRYGYWGQGTLVTVSSTHTCPPCPAPEAAGGPSVFLFPPKPKDTLMISRTPEVTCVVVDVSHEDPEVKFNWYVDGVEVHNAKTKPREEQYNSTYRVVSVLTVLHQDWLNGKEYKCKVSNKALPAPIEKTISKAKGQPREPQVYTLPPSREEMTKNQVSLTCLVKGFYPSDIAVEWESNGQPENNYKTTPPVLDSDGSFFLYSKLTVDKSRWQQGNVFSCSVMHEALHNHYTQKSLSLSPG
notes: also called HZ-A-Na-19-1
B5: Hu-A-NA-19-2 (Fc fusion)
chain: B4 chain with Q44G, R45L
notes: also called HZ-A-Na-19-2
B6: A-Ye-23 (Fc fusion)
chain: QVQLQESGGGLVQPGGSLRLSCAASGFSLGLYAIAWFRQAPGKEREWVSCIEKSDSSAYYADSVKGRFTVSRDNAKNTVDLQMNRLSPEDTAVYYCAAPQSDCFHYKENDYWGQGTQVTVSSTHTCPPCPAPEAAGGPSVFLFPPKPKDTLMISRTPEVTCVVVDVSHEDPEVKFNWYVDGVEVHNAKTKPREEQYNSTYRVVSVLTVLHQDWLNGKEYKCKVSNKALPAPIEKTISKAKGQPREPQVYTLPPSREEMTKNQVSLTCLVKGFYPSDIAVEWESNGQPENNYKTTPPVLDSDGSFFLYSKLTVDKSRWQQGNVFSCSVMHEALHNHYTQKSLSLSPG
B7: L-Yr-13&14-01 (Fc fusion)
chain: QVQLQESGGGLVQAGGSLRLSCAASGSFNAMGWWRQAPGKQREFVAIITRDGSTNLADSVKGRFTISSDNAKNTWFLQMNSLKPEDTAVYYCSASDYGSSLYYWGQGTQVTVSSTHTCPPCPAPEAAGGPSVFLFPPKPKDTLMISRTPEVTCVVVDVSHEDPEVKFNWYVDGVEVHNAKTKPREEQYNSTYRVVSVLTVLHQDWLNGKEYKCKVSNKALPAPIEKTISKAKGQPREPQVYTLPPSREEMTKNQVSLTCLVKGFYPSDIAVEWESNGQPENNYKTTPPVLDSDGSFFLYSKLTVDKSRWQQGNVFSCSVMHEALHNHYTQKSLSLSPG
B8: L-Yr-13&14-03 (Fc fusion)
chain: QVQLQESGGGLVQPGESLRLSCDSGRIFSYNFMGWYRQAPGKQRELVASITWGGTIKYADSVKGRFTISRHDAENTVYLQMNSLKSEDTAVYYCHAATDTGVIYWGQGTQVTVSSTHTCPPCPAPEAAGGPSVFLFPPKPKDTLMISRTPEVTCVVVDVSHEDPEVKFNWYVDGVEVHNAKTKPREEQYNSTYRVVSVLTVLHQDWLNGKEYKCKVSNKALPAPIEKTISKAKGQPREPQVYTLPPSREEMTKNQVSLTCLVKGFYPSDIAVEWESNGQPENNYKTTPPVLDSDGSFFLYSKLTVDKSRWQQGNVFSCSVMHEALHNHYTQKSLSLSPG
B9: L-Yr-13&14-05 (Fc fusion)
chain: QVQLQESGGGLVQAGGSLRLSCAASGRTLSGYVMGWFRQASGKERELVAAISSGGSTYYEDSVKGRFTISRDNAKNTMYLQMNSLKPEDTAVYYCAADPRRLTGLYDYWGQGTQVTVSSTHTCPPCPAPEAAGGPSVFLFPPKPKDTLMISRTPEVTCVVVDVSHEDPEVKFNWYVDGVEVHNAKTKPREEQYNSTYRVVSVLTVLHQDWLNGKEYKCKVSNKALPAPIEKTISKAKGQPREPQVYTLPPSREEMTKNQVSLTCLVKGFYPSDIAVEWESNGQPENNYKTTPPVLDSDGSFFLYSKLTVDKSRWQQGNVFSCSVMHEALHNHYTQKSLSLSPG
B10: L-Yr-13&14-06 (Fc fusion)
chain: QVQLQESGGGLVEAGGSLRLSCAASGSIFSINVMGWYRQAPGKQRELVAVITSDYSTNYADSVKGRFTISRDNAKNTVYLQMNSLKPEDTAVYHCAATGYGSSPWYWGQGTQVTVSSTHTCPPCPAPEAAGGPSVFLFPPKPKDTLMISRTPEVTCVVVDVSHEDPEVKFNWYVDGVEVHNAKTKPREEQYNSTYRVVSVLTVLHQDWLNGKEYKCKVSNKALPAPIEKTISKAKGQPREPQVYTLPPSREEMTKNQVSLTCLVKGFYPSDIAVEWESNGQPENNYKTTPPVLDSDGSFFLYSKLTVDKSRWQQGNVFSCSVMHEALHNHYTQKSLSLSPG

Target: HZ-L-Yr-13&14-16-1
Test: ELISA on coated his-tagged protein
Experimental: Human 4-1BB-his, GITR-his, OX40-his, CD40-his proteins (purchased from ACRO) were dissolved according to the instructions, diluted to 1 μg/ml with ELISA coating solution (purchased from Shanghai Sangon), coated on ELISA plate at 100 allowed to stand overnight at 4° C., and washed for 3 times with PBST, 5% BSA (purchased from Shanghai Sangon) was added at 200 μl/well to block for 1 hour at room temperature. The coating solution was discarded, 4-1BB antibody diluted with 1% BSA was added at 100 200 nM in three replicate wells, and incubated at room temperature for 2 hours. Washing was performed with PBST for 3 times, and goat anti-human IgG-Fc-HRP (purchased from abcam) diluted with 1% BSA was added at 100 μl/well, and incubated at room temperature for 1 hour. Washing was performed 3 times with PBST, ELISA chromogenic solution (purchased from Solarbio) was added at 100 μl/well to react at room temperature for 3 minutes, ELISA stop solution (purchased from Solarbio) was added at 50 and the absorbance value at 450 nm was read.

Binder | binding result
B1 | no binding (tested: 200 nM)
B2 | no binding (tested: 200 nM)

Target: T1, human 4-1BB on CHO cells (human, UniProt Q07011 24-255)
T1 construct: whole, on cells; also called CHO-h4-1BB cells; human 4-1BB CHO-S cells
T1 sequence (Q07011 24-255): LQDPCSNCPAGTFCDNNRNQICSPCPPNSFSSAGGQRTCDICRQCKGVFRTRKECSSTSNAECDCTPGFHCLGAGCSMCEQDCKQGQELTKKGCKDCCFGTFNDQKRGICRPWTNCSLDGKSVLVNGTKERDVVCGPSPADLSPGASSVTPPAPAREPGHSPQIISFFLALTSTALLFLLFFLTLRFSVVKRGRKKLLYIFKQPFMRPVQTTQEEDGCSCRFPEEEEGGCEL
Test: flow cytometry on CHO cells expressing human 4-1BB
Experimental: CHO cells overexpressing human 4-1BB (CHO-h4-1BB cells) were generated by transfection of pCHO1.0 vector (purchased from Invitrogen) encoding human 4-1BB cDNA cloned into MCS (multiple cloning site). The cell density of the expanded CHO-h4-1BB cells was adjusted to 2×10⁶ cells/ml, added at 100 μl/well to a 96-well flow plate, and centrifuged for later use. The purified 4-1BB antibody was diluted with PBS by 3-fold dilution starting from 400 nM for a total of 12 points. The above-mentioned diluted sample was added at 100 μl/well to the above-mentioned 96-well flow plate with cells, incubated at 4° C. for 30 min, and washed twice with PBS. Goat F(ab′)2 anti-human IgG-Fc (PE) (purchased from Abcam) diluted 100 times with PBS was added at 100 μl/well, incubated at 4° C. for 30 min, and washed twice with PBS. The cells resuspended with PBS was added at 100 μl/well, and detected on CytoFlex (Bechman) flow cytometer, and the corresponding MFI was calculated.

Binder | binding result
B3 | binds
B4 | binds
B5 | binds

Target: T2, 4-1BB antigen (human, UniProt Q07011 24-186, limits assumed)
T2 construct: also called human 4-1BB antigen; human 4-1BB protein
T2 sequence (Q07011 24-186 limits assumed): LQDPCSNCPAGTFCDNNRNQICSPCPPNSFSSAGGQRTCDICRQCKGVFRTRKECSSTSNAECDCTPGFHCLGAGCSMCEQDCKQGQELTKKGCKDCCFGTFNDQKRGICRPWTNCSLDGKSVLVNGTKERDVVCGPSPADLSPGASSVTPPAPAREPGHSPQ
Test: BLI (ForteBio), antibody on AHQ sensor, 100 nM 4-1BB antigen, 1:1 model
Experimental: ForteBio affinity determination was performed according to the existing method (Estep, P et al., Solution-based measurement of high-throughput antibody-antigen affinity and epitope classification, MAbs, 2013.5(2):p. 270-8). Briefly, the sensor was equilibrated offline for 30 min in the assay buffer, then the baseline was established by detection online for 60 s, and the purified antibody obtained as described above was loaded onto the AHQ sensor online. Then, the sensor was put into 100 nM 4-1BB antigen to act for 5 minutes, and the sensor was transferred to PBS and dissociated for 5 minutes. Analysis of kinetics was performed using a 1:1 binding model.

Binder | Kd [nM]
B6 | 23.4
B7 | 19.5
B8 | 19.1
B9 | 33.5
B10 | 20.6
